Results: article PMC8913300, “Two distinct classes of cochaperones compete for the EEVD motif in heat shock protein 70 to tune its chaperone activities” (The Journal of Biological Chemistry, 2022)
Values joined by “and” are separate entries in the source; they are usually repeats but may differ in a detail not shown here. Equal values may be shown once. No end group written: not given here.

B5: C terminus of Hsc70 interacting protein (CHIP) (enzyme, human, UniProt Q9UNE7 1-303, looked up)
chain: MKGKEEKEGGARLGAGGGSPEKSPSAQELKEQGNRLFVGRKYPEAAACYGRAITRNPLVAVYYTNRALCYLKMQQHEQALADCRRALELDGQSVKAHFFLGQCQLEMESYDEAIANLQRAYSLAKEQRLNFGDDIPSALRIAKKKRWNSIEERRIHQESELHSYLSRLIAAERERELEECQRNHEGDEDDSHVRAQQACIEAKHDKYMADMDELFSQVDEKRKKRDIPDYLCGKISFELMREPCITPSGITYDRKDIEEHLQRVGHFDPVTRSPLTQEQLIPNLAMKEVIDAFISENGWVEDY
notes: recombinant human CHIP, E3 ubiquitin ligase with a TPR domain; source: E. coli BL21(DE3), purified (Ni-NTA, TEV cleavage, SEC); not shown: His6, N-terminal, cleaved
B8: Hsp72 T636E tracer FITC-Ahx-GSGPEIEEVD (peptide)
peptide: GSGPEIEEVD-OH
modifications: not fully specified (N-terminus); printed as FITC-Ahx-GSGPEIEEVD; also: methods name the dye 5-FAM, not FITC
notes: also called phosphomimetic T636E Hsp72 fluorescent tracer; source: synthetic peptide, bought: GenScript

How the values were obtained:
Conditions in all cases: both partners purified
[1] = target: B5; assay: fluorescence polarisation; competition; 100 μM unlabeled peptide, 1.58 μM CHIP, 20 nM Hsp72 tracer; 50 mM Hepes pH 7.4, 50 mM KCl, 0.01% Triton X-100; 30 min at room temperature
DnaJB4 [2] = target: T1, DnaJB4 (human, UniProt Q9UDY4 1-337); assay: fluorescence polarisation; saturation binding; 20 nM fluorescent Hsp72 tracer, J-domain protein titrated in 2x dilutions (110-0.013 μM told for DnaJB4); 50 mM Tris, 15 mM NaCl, 1 mM DTT, 0.01% Triton X-100, pH 8.0; 30 min at room temperature
T1 construct: DnaJB4, human, recombinant full length class B J-domain protein; the oligomeric state of DnaJB4 is not measured here; also called WT DnaJB4; class B JDP; source: E. coli BL21 (DE3) Rosetta, purified (Ni-NTA, TEV cleavage, SEC on Superdex 200); not shown: His6, N-terminal, cleaved

DnaJB4 [3] = target: T1, DnaJB4; assay: fluorescence polarisation; competition; 100 μM unlabeled peptide, 5 μM DnaJB4, 20 nM Hsp72 tracer in JDP binding buffer; 30 min at room temperature; tracer displacement relative to DMSO control
[4] = target: B8; assay: fluorescence polarisation; saturation binding; 20 nM fluorescent Hsp72 tracer, CHIP titrated in 2x dilutions (110-0.013 μM); 25 mM Hepes, 50 mM KCl, 0.01% Triton X-100, pH 7.4; 30 min at room temperature

T1 sequence (Q9UDY4 whole entry): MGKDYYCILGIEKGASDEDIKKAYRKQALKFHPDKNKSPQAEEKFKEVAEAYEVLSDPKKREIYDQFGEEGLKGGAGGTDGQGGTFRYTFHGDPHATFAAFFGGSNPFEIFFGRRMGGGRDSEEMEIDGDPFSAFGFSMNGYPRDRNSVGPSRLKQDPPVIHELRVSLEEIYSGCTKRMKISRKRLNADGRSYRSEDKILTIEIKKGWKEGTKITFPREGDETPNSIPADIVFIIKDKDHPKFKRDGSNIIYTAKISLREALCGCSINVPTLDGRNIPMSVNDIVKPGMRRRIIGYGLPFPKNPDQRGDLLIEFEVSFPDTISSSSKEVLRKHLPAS

B1: Hsp72 tracer FITC-Ahx-GSGPTIEEVD (peptide)
peptide: GSGPTIEEVD-OH
modifications: not fully specified (N-terminus); printed as FITC-Ahx-GSGPTIEEVD; also: methods name the dye 5-FAM, not FITC
notes: last 10 residues of Hsp72/HSPA1A; also called fluorescent Hsp72 tracer; Hsp72 probe; source: synthetic peptide, bought: GenScript
With B1 the binding result [1] was “binds” and the Kd (DnaJB4 [2]) was 1.84 µM and 1.65 µM.

B2: Hsp72 C-terminal peptide truncated of P10 (9-mer) (peptide, UniProt P0DMV8 633-641, looked up)
peptide: Ac-SGPTIEEVD-OH
notes: source: synthetic peptide, bought: GenScript
B2: binds (DnaJB4 [3]).

B3: Hsp72 C-terminal peptide truncated of P10 to P8 (7-mer PTIEEVD) (peptide)
peptide: Ac-PTIEEVD-OH
notes: last seven amino acids of Hsp72/HSPA1A; source: synthetic peptide, bought: GenScript
B3: binds (DnaJB4 [3]).

B4: Hsp72 C-terminal peptide truncated of P10 and P9 (8-mer) (peptide, UniProt P0DMV8 634-641, looked up)
peptide: Ac-GPTIEEVD-OH
notes: as for B2
B4: binds (DnaJB4 [3]).

In the case of B5, the “fold weakening of the affinity against the WT tracer” value [4] is reported as 5 fold.

B6: Hsp72 C-terminal 10-mer peptide, unlabeled, N-acetylated (peptide)
peptide: Ac-GSGPTIEEVD-OH
notes: last 10 residues of Hsp72/HSPA1A; also called WT Hsp72 peptide; source: synthetic peptide, bought: GenScript
B6: binds [1].

B7: Hsp72 10-mer peptide with P5 Ile replaced by Met (peptide, UniProt P0DMV8 632-641, looked up)
peptide: Ac-GSGPTMEEVD-OH
notes: also called P5 Met mutant; source: synthetic peptide, bought: GenScript
B7: binds (DnaJB4 [3]).

B8: binds (DnaJB4 [2]).
